Molecular target: T1, human CD3 epsilon on human CD3 epsilon-expressing Ba/F3 cells (human, UniProt P07766 23-207)
T1 construct: The Ba/F3 transfectant is not itself tied to that entry; also called CD3/BaF; CD3 epsilon chain
Experiment: flow cytometry on human CD3 epsilon-expressing Ba/F3 cells, FITC-labeled secondary antibody, calibration curve
Description: After washing these cells, an FITC-labeled secondary antibody was added for further reaction. After washing the cells, the fluorescent intensity of the label on the cells was measured using Epics XL flow cytometer (Beckman coulter) to prepare a calibration curve for each antibody.
Plasma was prepared from the blood and diluted appropriately. […] The plasma concentration of each antibody was calculated using determined values and the calibration curves described above.

T1 sequence (P07766 23-207 limits assumed): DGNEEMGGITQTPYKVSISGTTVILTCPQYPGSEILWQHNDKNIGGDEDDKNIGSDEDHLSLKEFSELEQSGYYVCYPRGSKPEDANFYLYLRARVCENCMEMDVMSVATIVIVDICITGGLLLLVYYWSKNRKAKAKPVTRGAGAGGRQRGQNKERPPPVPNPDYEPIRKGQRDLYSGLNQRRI

Binder | binding result
GPC3 ERY9-1 (bispecific antibody, human IgG1, kappa, L234A L235A, N297A, Anti-GPC3 IgG backbone with silent Fc) heavy: not shown light 1: DIVMTQSPLSLPVTPGEPASISCRSSQSLVHSNRNTYLHWYQQKPGQAPRLLIYKVSNRFSGVPDRFSGSGSGTDFTLKISRVEAEDVGVYYCSQNTHVPPTFGQGTKLEIKRTVAAPSVFIFPPSDEQLKSGTASVVCLLNNFYPREAKVQWKVDNALQSGNSQESVTEQDSKDSTYSLSSTLTLSKADYEKHKVYACEVTHQGLSSPVTKSFNRGECHHHHHHHH light 2: DIVMTQSPLSLPVTPGEPASISCRSSQSLVHSNRNTYLHWYQQKPGQAPRLLIYKVSNRFSGVPDRFSGSGSGTDFTLKISRVEAEDVGVYYCSQNTHVPPTFGQGTKLEIKRTVAAPSVFIFPPSDEQLKSGTASVVCLLNNFYPREAKVQWKVDNALQSGNSQESVTEQDSKDSTYSLSSTLTLSKADYEKHKVYACEVTHQGLSSPVTKSFNRGECGGGGSGGGGSQAVVTQESALTTSPGETVTLTCRSSTGAVTTSNYANWVQEKPDHLFTGLIGGTNKRAPGVPARFSGSLIGDKAALTITGAQTEDEAIYFCALWYSNLWVFGGGTKLTVLGGGGSGGGGSGGGGSEVKLLESGGGLVQPKGSLKLSCAASGFTFNTYAMNWVRQAPGKGLEWVARIRSKYNNYATYYADSVKDRFTISRDDSQSILYLQMNNLKTEDTAMYYCVRHGNFGNSYVSWFAYWGQGTLVTVSADYKDDDDK | binds
GPC3 ERY10-1 (bispecific antibody, human IgG1, kappa, L234A L235A, N297A, Anti-GPC3 IgG backbone with silent Fc and knobs-into-holes CH3; also called GPC ERY10-1) heavy 1: QVQLVQSGAEVKKPGASVKVSCKASGYTFTDYEMHWIRQPPGQGLEWIGAIDPKTGDTAYSQKFKGRVTLTADKSTSTAYMELSSLTSEDTAVYYCTRFYSYTYWGQGTLVTVSSASTKGPSVFPLAPSSKSTSGGTAALGCLVKDYFPEPVTVSWNSGALTSGVHTFPAVLQSSGLYSLSSVVTVPSSSLGTQTYICNVNHKPSNTKVDKKVEPKSCDKTHTCPPCPAPEAAGGPSVFLFPPKPKDTLMISRTPEVTCVVVDVSHEDPEVKFNWYVDGVEVHNAKTKPREEQYASTYRVVSVLTVLHQDWLNGKEYKCKVSNKALPAPIEKTISKAKGQPREPQVYTLPPSRCELTKNQVSLSCAVKGFYPSDIAVEWESNGQPENNYKTTPPVLDSDGSFFLVSKLTVDKSRWQQGNVFSCSVMHEALHNHYTQKSLSLSPGGGGSGGGGSQAVVTQESALTTSPGETVTLTCRSSTGAVTTSNYANWVQEKPDHLFTGLIGGTNKRAPGVPARFSGSLIGDKAALTITGAQTEDEAIYFCALWYSNLWVFGGGTKLTVLGGGGSGGGGSGGGGSEVKLLESGGGLVQPKGSLKLSCAASGFTFNTYAMNWVRQAPGKGLEWVARIRSKYNNYATYYADSVKDRFTISRDDSQSILYLQMNNLKTEDTAMYYCVRHGNFGNSYVSWFAYWGQGTLVTVSADYKDDDDK heavy 2: QVQLVQSGAEVKKPGASVKVSCKASGYTFTDYEMHWIRQPPGQGLEWIGAIDPKTGDTAYSQKFKGRVTLTADKSTSTAYMELSSLTSEDTAVYYCTRFYSYTYWGQGTLVTVSSASTKGPSVFPLAPSSKSTSGGTAALGCLVKDYFPEPVTVSWNSGALTSGVHTFPAVLQSSGLYSLSSVVTVPSSSLGTQTYICNVNHKPSNTKVDKKVEPKSCDKTHTCPPCPAPEAAGGPSVFLFPPKPKDTLMISRTPEVTCVVVDVSHEDPEVKFNWYVDGVEVHNAKTKPREEQYASTYRVVSVLTVLHQDWLNGKEYKCKVSNKALPAPIEKTISKAKGQPREPQVCTLPPSRDELTKNQVSLWCLVKGFYPSDIAVEWESNGQPENNYKTTPPVLDSDGSFFLYSKLTVDKSRWQQGNVFSCSVMHEALHNHYTQKSLSLSPHHHHHHHH light: DIVMTQSPLSLPVTPGEPASISCRSSQSLVHSNRNTYLHWYQQKPGQAPRLLIYKVSNRFSGVPDRFSGSGSGTDFTLKISRVEAEDVGVYYCSQNTHVPPTFGQGTKLEIKRTVAAPSVFIFPPSDEQLKSGTASVVCLLNNFYPREAKVQWKVDNALQSGNSQESVTEQDSKDSTYSLSSTLTLSKADYEKHKVYACEVTHQGLSSPVTKSFNRGEC | binds

From patent US20220041756A1 (Chugai, published 2022)
